Data as given in patent US9872893B2, “Endolysins active against Staphylococcus bacteria, pharmaceutical compositions, and methods relating thereto” (priority 2014, dated 2018).

Experiments:
[1] = system: S. aureus NRS-14 (VISA strain); test: bactericidal analysis (CFU counts, MBC); assay type: cell-based, Staphylococcus aureus; conditions: 1 hour, stationary phase
Experimental: Sterile-filtered PlyGRCS was 2-fold serially diluted in PBS supplemented with 1 mM CaCl2 and an equal volume of either various concentrations of enzyme or buffer only was added to 10^5 S. aureus NRS-14 in a microtiter plate. Samples were incubated at 37° C. for 1 hour, then serially diluted, plated on TSB agar, and incubated overnight at 37° C. to obtain CFU counts. The MBC (minimum bactericidal concentration) was determined as the minimum concentration of enzyme that killed ≧99.9% of bacteria.
It has been noted that the minimal inhibitory concentration (MIC) assay may not be the most appropriate assay to measure endolysin efficacy due to the speed at which the enzyme acts (Kusuma C M et al. (2005) Comparison of four methods for determining lysostaphin susceptibility of various strains of Staphylococcus aureus. Antimicrobial agents and chemotherapy 49(8):3256-63). Therefore, we employed the minimum bactericidal concentration (MBC) assay, which is the lowest concentration of enzyme that kills ≧99.9% (i.e. 3 logs) of the test inoculum (Jones R et al. (1985) Susceptibility tests: microdilution and macrodilution broth procedures. In: Balows A, Hausler J, Shadomy H (eds) Manual of Clinical Microbiology. American Society for Microbiology, Washington, D.C., pp 972-7).

[2] = system: Staphylococcus epidermidis, NRS-101; test: plate lysis assay (spectrum of lytic activity); assay type: cell-based; design: key to strength of lytic zone: strong lytic zone = ++; weak lytic zone = +; no lytic zone = −; conditions: 6 μg
Experimental: (§1) The PlyGRCS spectrum of lytic activity was performed (Schmelcher M et al. (2012) Chimeric phage lysins act synergistically with lysostaphin to kill mastitis-causing Staphylococcus aureus in murine mammary glands. Appl Environ Microbiol 78(7):2297-305) with minor modifications. Bacterial cells were diluted in sterile PBS to an OD600=1, and 100 μl was spread on each plate. 10 μl spots (600 μg/ml) of PlyGRCS or CHAPGRCS were applied. Plates were incubated overnight at 37° C. Strength of lytic zones was defined qualitatively.

[3] = system: Staphylococcus aureus, NRS-71; test: plate lysis assay (spectrum of lytic activity); assay type: cell-based; design: key to strength of lytic zone: strong lytic zone = ++; weak lytic zone = +; no lytic zone = −; conditions: 6 μg
Experimental: as §1

[4] = system: Staphylococcus aureus, NRS-384; test: plate lysis assay (spectrum of lytic activity); assay type: cell-based; design: key to strength of lytic zone: strong lytic zone = ++; weak lytic zone = +; no lytic zone = −; conditions: 6 μg; S. aureus NRS-384, MRSA
Experimental: as §1

[5] = system: Staphylococcus aureus, NRS-14; test: plate lysis assay (spectrum of lytic activity); assay type: cell-based; design: key to strength of lytic zone: strong lytic zone = ++; weak lytic zone = +; no lytic zone = −; conditions: 6 μg
Experimental: as §1

[6] = system: stationary phase S. aureus NRS-14; test: kinetic stability (lytic assay after incubation at indicated temperatures); assay type: cell-based, Staphylococcus aureus; conditions: 25 μg/ml
Experimental: Lytic activity was based on turbidity reduction assay (Nelson D C et al. (2012) Endolysins as antimicrobials. Adv Virus Res 83:299-365). Briefly, bacterial cells were centrifuged (4,000 RPM, 5 minutes, 4° C.), re-suspended in buffer and mixed 1:1 (v/v) with endolysin to a final OD600=1. OD600 readings were taken every 15 seconds for 20 minutes at 37° C. Endolysin activity was equated to the Vmax dictated by the linear portion of the resulting killing curve. Each experiment was performed in triplicate.
To determine dose response, PlyGRCS was serially diluted and each dosage (100 μl) was added in triplicate to a 96-well polystyrene microtiter plate (Nest Biotech Co, Ltd) just before addition of bacterial cells (100 μl) according to the turbidity reduction assay described above. For optimum pH determination, bacterial cells were suspended in 40 mM boric acid/phosphoric acid (BP) buffer, pH 3-11, and were challenged against PlyGRCS. The influence of NaCl on PlyGRCS activity was tested in BP buffer at the experimentally determined pH optimum using the same assay. The effect of divalent cations was determined using the turbidity reduction assay with several modifications. […] Kinetic stability was evaluated (Son B et al. (2012) Characterization of LysB4, an endolysin from the Bacillus cereus-infecting bacteriophage B4. BMC Microbiol 12:33) with minor modifications. […]

[7] = system: Streptococcus pneumoniae, ATCC BAA-334; test: plate lysis assay (spectrum of lytic activity); assay type: cell-based; design: key: strong lytic zone = ++; weak lytic zone = +; no lytic zone = −; conditions: 6 μg
Experimental: as §1

[8] = system: Staphylococcus aureus, NRS-385; test: plate lysis assay (spectrum of lytic activity); assay type: cell-based; design: key: strong lytic zone = ++; weak lytic zone = +; no lytic zone = −; conditions: 6 μg; S. aureus NRS-385, MRSA
Experimental: as §1

[9] = system: Staphylococcus aureus, NRS-382; test: plate lysis assay (spectrum of lytic activity); assay type: cell-based; design: key: strong lytic zone = ++; weak lytic zone = +; no lytic zone = −; conditions: 6 μg; S. aureus NRS-382, MRSA
Experimental: as §1

[10] = system: Streptococcus equi, ATCC 9528; test: plate lysis assay (spectrum of lytic activity); assay type: cell-based; design: key: strong lytic zone = ++; weak lytic zone = +; no lytic zone = −; conditions: 6 μg
Experimental: as §1

[11] = system: Streptococcus uberis, ATCC 700407; test: plate lysis assay (spectrum of lytic activity); assay type: cell-based; design: key: strong lytic zone = ++; weak lytic zone = +; no lytic zone = −; conditions: 6 μg
Experimental: as §1

Bacillus pumulis, BJ0055 = test: plate lysis assay (spectrum of lytic activity); assay type: cell-based; design: key: strong lytic zone = ++; weak lytic zone = +; no lytic zone = −; conditions: 6 μg
Experimental: as §1

[12] = system: Streptococcus pyogenes, D471; test: plate lysis assay (spectrum of lytic activity); assay type: cell-based; design: key: strong lytic zone = ++; weak lytic zone = +; no lytic zone = −; conditions: 6 μg
Experimental: as §1

[13] = system: Enterococcus facealis, EF24; test: plate lysis assay (spectrum of lytic activity); assay type: cell-based; design: key: strong lytic zone = ++; weak lytic zone = +; no lytic zone = −; conditions: 6 μg
Experimental: as §1

[14] = system: Streptococcus suis, 730082; test: plate lysis assay (spectrum of lytic activity); assay type: cell-based; design: key: strong lytic zone = ++; weak lytic zone = +; no lytic zone = −; conditions: 6 μg
Experimental: as §1

B1: PlyGRCS: endolysin of bacteriophage GRCS (ORF15), amino acids 1-250, SEQ ID NO: 5, C-terminal 6× His tag (protein)
chain: MKSQQQAKEWIYKHEGTGVDFDGAYGFQCMDLAVAYVYYITDGKVRMWGNAKDAINNDFKGLATVYENTPSFKPQLGDVAVYTNSQYGHIQCVISGNLDYYTCLEQNWLGGGFDGWEKATIRTHYYDGVTHFIRPKFSASNSNVLETSKVNTFGNWKQNQYGTYYRNENATFTCGFLPIFARVGSPKLSEPNGYWFQPNGYTPYDEVCLSDGLVWIGYNWQGTRYYLPVRQWNGKTGNSYSIGLPWGVFS
modifications: C-terminal 6xHis tag; Synthetically generated polypeptide (PlyGRCS phage (S. aureus))
In the case of B1, the “reduction of bacterial counts” value ([1]; 6.25 μg/ml) is reported as 2 logs, the log decrease ([1]; 12.5 μg/ml) is reported as 2.5 log and the log killing ([1]; 25 μg/ml) is reported as 3 log. For the same molecule, the “lytic activity on plates (in words)” value ([2]; S. epidermidis NRS-101) was “greatest strength”, the “strength of lytic zone” value ([2]; S. epidermidis NRS-101, MRSE) was “++” and the “lytic activity on plates (in words)” value ([3]; S. aureus NRS-71) was “greatest strength”. For the same molecule, the “strength of lytic zone” value ([3]; S. aureus NRS-71, MRSA) was “++”, the “strength of lytic zone” value [4] was “+” and the “lytic activity on plates (in words)” value ([5]; S. aureus NRS-14) was “greatest strength”. The “strength of lytic zone” value ([5]; S. aureus NRS-14, VISA) was “++”, the residual lytic activity ([6]; after 30 minutes at 4° C. to 37° C.) was > 90% and the “lytic activity after heating (in words)” value ([6]; after 30 minutes at ≧40° C.) was “lytic activity was not observed”. For the same molecule, the “strength of lytic zone” value [7] was “−”, the “strength of lytic zone” value [8] was “+” and the “strength of lytic zone” value [9] was “+”. For the same molecule, the “strength of lytic zone” value [10] was “−”, the “strength of lytic zone” value [11] was “−” and the “strength of lytic zone” value (Bacillus pumulis, BJ0055) was “−”. The “strength of lytic zone” value [12] was “−”, the “strength of lytic zone” value [13] was “−” and the “strength of lytic zone” value [14] was “−”.
